For series [1], the target named is MBP-TaCCA1-7D fusion protein (Triticum aestivum (bread wheat)). Description: BLI; ForteBio Octet RED 96e; streptavidin (SA) biosensors loaded with 10.0 ug/ml biotinylated recombinant TaCCA1-7D; TaCCA1-7A or TaCCA1-7B in solution at 10-630 nM, low to high concentration; KD as the ratio of dissociation and association rate constants. In general terms: Biolayer interferometry detects binding as a change in optical thickness at a sensor tip.

The target in series [2] is T1, MBP-TaCCA1-7D (Triticum aestivum, UniProt A0A3B6TKA2 1-718). Description: BLI; single-digit nM per text; exact value in Table S6 not in material; EMSA: 150 ng protein, 2 pM DIG probe, 10 ul, 1 h on ice, 6% PAGE in 0.5x TBE pH 8.0; BLI: Octet RED96e, SA sensors with biotinylated TaCCA1-7D; buffers not stated. To be noted: protein: recombinant, tags: MBP (pMAL-c2X, N-terminal), biotinylated for BLI, blunt.
T1 sequence (A0A3B6TKA2 entry or part of it): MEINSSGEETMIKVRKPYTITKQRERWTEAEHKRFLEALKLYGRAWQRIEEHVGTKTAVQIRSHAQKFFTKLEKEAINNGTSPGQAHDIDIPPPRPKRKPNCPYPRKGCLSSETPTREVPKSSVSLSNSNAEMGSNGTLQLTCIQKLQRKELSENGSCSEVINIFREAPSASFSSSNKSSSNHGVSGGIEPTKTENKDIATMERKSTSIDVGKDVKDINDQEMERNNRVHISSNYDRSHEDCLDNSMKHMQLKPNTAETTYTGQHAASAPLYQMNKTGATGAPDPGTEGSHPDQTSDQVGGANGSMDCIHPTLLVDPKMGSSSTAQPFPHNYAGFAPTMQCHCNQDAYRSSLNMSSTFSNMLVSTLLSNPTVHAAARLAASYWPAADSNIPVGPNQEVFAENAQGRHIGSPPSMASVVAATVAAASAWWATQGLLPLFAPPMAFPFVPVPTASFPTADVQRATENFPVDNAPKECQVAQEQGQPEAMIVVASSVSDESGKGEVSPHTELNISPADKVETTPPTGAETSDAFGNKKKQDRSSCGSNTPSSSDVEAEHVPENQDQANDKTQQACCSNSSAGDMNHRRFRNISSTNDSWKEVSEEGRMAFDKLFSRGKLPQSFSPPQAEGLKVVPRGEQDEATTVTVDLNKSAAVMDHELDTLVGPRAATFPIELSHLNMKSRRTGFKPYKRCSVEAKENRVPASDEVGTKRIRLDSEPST

In series [3] the target is T1, MBP-TaCCA1-7D. Put plainly: BLI; kon 1.35E+05 1/Ms; koff 2.42E-04 1/s; EMSA: 150 ng protein, 2 pM DIG probe, 10 ul, 1 h on ice, 6% PAGE in 0.5x TBE pH 8.0; BLI: Octet RED96e, SA sensors with biotinylated TaCCA1-7D; buffers not stated. The settings on record: protein: recombinant; tags: MBP (pMAL-c2X, N-terminal); biotinylated for BLI; label: 5' biotin; blunt.
[4] abbreviates: label: 5' biotin (BLI), DIG (EMSA).

For orientation: Kd means the equilibrium constant for the complex coming apart. The koff is the rate constant with which the complex falls apart. In general, kon refers to a measure of how fast the partners come together.

Turning to TaCCA1-7A (natural protein), in series [1], the Kd was found to be 27.8 nM, the koff amounted to 0.0012 s⁻¹ and the kon came out at 43000 M⁻¹ s⁻¹. For TaCCA1-7B (natural protein) the same measures were 3.6 nM, 0.00133 s⁻¹ and 368000 M⁻¹ s⁻¹.

B1: DAP-3 (TraesCS2B02G491700 promoter) (dsDNA)
DNA 1: CTTCAGATTTGTTGATATTTTCATATTGCAGACAT
DNA 2: ATGTCTGCAATATGAAAATATCAACAAATCTGAAG
Take B1: the Kd with MBP-TaCCA1-7D [2] (setting [4]) is under 10 nM.

B2: DAP-4 (TraesCS3B02G186700 promoter) (dsDNA)
DNA 1: AATAGAAAATTACTGATATTTCATCCTTATGAGATT
DNA 2: AATCTCATAAGGATGAAATATCAGTAATTTTCTATT
As for B2, in the series with MBP-TaCCA1-7D [2] (label: 5' biotin), the Kd is under 10 nM.

B3: DAP-2 (TraesCS1D02G295200 promoter) (dsDNA)
DNA 1: AAATAGAAAATTACTGATATTTCATCCTTGTGTGAT
DNA 2: ATCACACAAGGATGAAATATCAGTAATTTTCTATTT
As for B3, the Kd with MBP-TaCCA1-7D [2] (setting [4]) is under 10 nM.

B4: DAP-1 (TraesCS1D02G226100 promoter, CHLG) (dsDNA)
DNA 1: TTATATGCCTATATGATATTATGATTTATTTGGTTT
DNA 2: AAACCAAATAAATCATAATATCATATAGGCATATAA
Regarding B4, in the series with MBP-TaCCA1-7D [3], the Kd is 1.79 nM.

Source of the values: paper PMC9340162, “The Central Circadian Clock Protein TaCCA1 Regulates Seedling Growth and Spike Development in Wheat (Triticum aestivum L.)”.
